Source: US20210032351A1 (XDCEXPLORER SHANGHAI, published 2021)
Positions count from the first letter of the chain named.

B1: c75G7C6-1 (antibody, human IgG1, V domains shown)
VH: EVQLQQSGPELVKPGASVKIPCKASGYTFTDYNMDWVKQSHGKSLEWIGDINPNNADTIYNQKFKGKATLTVDKSSSTAYMELRSLTSEDTAVYYCARGDYDGYYPVYYAMDYWGQGTSVTVSS
VL: ENVLTQSPAIMSASPGEKVTMTCRASSSVSSSYLHWYQQKSGASPKLWIFSTSNLAAGVPARFSGSGSGTSYSLTVSSVEAEDAATYYCQQYSGYPLTFGAGTKLELK
notes: Chimeric 75G7C6 with NG of heavy chain CDR2 mutated to NA; also called c754G7C6-1; mutant chimeric antibody NG/NA
B2: c75G7C6-2 (antibody, human IgG1, V domains shown)
VH: B1 VH with N55Q, A56G
VL: B1 VL
notes: Chimeric 75G7C6 with NG of heavy chain CDR2 mutated to QG; also called c754G7C6-2; mutant chimeric antibody NG/QG
B3: c75G7C6-3 (antibody, human IgG1, V domains shown)
VH: B1 VH with A56G, D102E
VL: B1 VL
notes: Chimeric 75G7C6 with DG of heavy chain CDR3 mutated to EG; Human IgG1/kappa; also called mutant chimeric antibody DG/EG
B4: Murine anti-49G12 (antibody, V domains shown)
VH: EVQLLQSGAELVKPGASVKLSCTASGFNIKDYYMHWVKQRTEQGLEWIGRIDPEDGETKYAPKFQGKATMTADTSSNTAYLQLSSLTSEDTAVYYCASSAYYGRNYWGQGTTLTVSS
VL: QIVLTQSPAIMSASPGEKVTLTCSASSSLSSSYLYWYQQKPGSSPKLWIYSTSNLASGVPARFSGSGSGTSYSLTISSMEAEDAASYFCHQWSSYPYTFGGGTKLEIK
notes: Mouse hybridoma antibody; also called 49G12G5
B5: Murine anti-51G7 (antibody, V domains shown)
VH: B4 VH with L5Q, Y32F, M34I, G66D, M70I, T71I, A100S, R104N
VL: B4 VL with L29V, S32N, Y95F
notes: Mouse hybridoma antibody; also called 51G7C2
B6: Murine anti-53D8 (antibody, V domains shown)
VH: QVQLQQSGAELARPGASVKMSCKASGYTFTSYTMHWVKQRPGQGLEWIGYINPSSGYTKYNQIFKDKATLTADKSSSTAYMQLSSLTSEDSAVYYCTRGGGRGFAYWGQGTLVTVSA
VL: DILMTQSPSSMSVSLGDTVSITCHASQDINSNIGWLQQKPGKSFKGLIYHGTNLEDGVPSRFSGSGSGADYSLTISSLESEDFADYYCVQYAQFPFTFGSGTKLEIK
notes: Mouse hybridoma antibody; also called 53D8H4
B7: Murine anti-64B11 (antibody, V domains shown)
VH: EVQLQQSGAELVKPGASVKLSCTASGFNIKDYYMHWVKQRTEQGLEWIGRIDPEDGETKYAPKFQGKATITADTSSNTAYLQLSNLPSEDTAVYYCGCRTGGFAYWGQGTLVTVSA
VL: B6 VL with D28G, G46A, K103E
notes: Mouse hybridoma antibody; also called 64B11F2
B8: Murine anti-46C4 (antibody, V domains shown)
VH: EVHLQQSVAELVRPGASVKLSCTASGFNIKNTYMHWVKQRPEQGLEWIGRIDPANGNTKYAPKFQGKATITADTSSNTAYLQLSSLTSEDTAIYYCASDFDYWGQGTTLTVSS
VL: DVLMTQTPLSLPVSLGDQVSISCRSSQSIVNSNGNTHLEWYLQKPGQSPKVLIYKVSKRFSGVPDRFSGSGSGTDFTLKISRVEAEDLGVYYCFQGSHVPYTFGGGTKLEIK
notes: Mouse hybridoma antibody; also called 46C4A6
B9: Murine anti-56F10 (antibody, V domains shown)
VH: B7 VH with Y32F, N85S, P87T
VL: QIVLTQSPAIMSASPGEKVTMTCSASSSVSYLYWYQQKPGSSPSLLIYDTSNLASGVPVRFSGSGSGTSYSLTISRMEAEDAATYYCQQWSRNPWTFGGGTKLEIK
notes: Mouse hybridoma antibody; also called 56F10G2
B10: Murine anti-59G3 (antibody, V domains shown)
VH: DVQLQESGPGLVKPSQSLSLTCSVTGYSITSGYYWHWIRQFPENKLEWMGYISYDGSNIYNPSLKNRISITRDTSKNQFFLKLNSVTTEDTATYYCAINSDYALDYWGQGTSVTVSS
VL: B9 VL with L32M, S44R, R92S, N93Y, P94S, W95L, G99A, I105L
notes: Mouse hybridoma antibody; also called 59G3F12

Molecular target: T1, human wild-type EGFR protein on the cell surface (human, UniProt P00533 25-1210)
T1 construct: whole, on cells; Endogenous on A431, HEB, U87MG cells and normal human primary hepatocytes; transfected on CHOk1-EGFR cells; The cell is named under assay; also called A431; HEB
Experiment: FACS on CHOk1-EGFR cells
Procedure: (§1) The cells are washed twice with the HBSS buffer and are counted, and then the cells are diluted with the HBSS buffer to 2×10⁶ cells/ml, added with 1% goat serum blocking solution, with the percentage being the mass percentage, and incubated on ice for 30 minutes, and then centrifugally washed twice with the HBSS buffer. The collected cells are suspended to 2×10⁶ cells/mL with an FACS buffer (HBSS+1% BSA, with the percentage being the mass percentage), added to a 96-well FACS reaction plate at 100 μL/well, then added with 100 μL/well of the purified EGFRvIII antibody (samples to be tested) obtained in example 2, and incubated on ice for 2 hours. The plate is centrifugally washed twice with the FACS buffer, added with 100 μL/well of a fluorescence (Alexa 488) labeled secondary antibody (purchased from Invitrogen), and then incubated on ice for 1 hour. The plate is centrifugally washed 3 times with the FACS buffer, added with 100 μL/well of a fixing solution [4% (v/v) paraformaldehyde] for suspending the cells, and centrifugally washed twice with the FACS buffer after 10 minutes. The cells are suspended in 100 μL of the FACS buffer, and the results are detected and analyzed by FACS (FACS Calibur, purchased from BD). Data analysis is performed by using the software (CellQuest) to obtain the mean fluorescence intensity (MFI) of the cells. Data is further analyzed by using the software (GraphPad Prism5) to perform data fitting and calculate EC50. […] A431 cells (human epidermal cell cancer cell lines) have a large amount of wild-type EGFR protein expressed on the surface thereof. […] U87MG cells (human glioma cell lines) have a small amount of wild-type EGFR protein expressed on the surface thereof, while HEB cells (human glioma cell lines) have a high level of wild-type EGFR protein expression on the surface thereof.

EC50	Maximum mean fluorescence intensity	Binder
11.3 nM	134000 MFI	B1
16.9 nM	130000 MFI	B2
44.8 nM	84700 MFI	B3

Molecular target: T2, wild-type human EGFR protein on the surface of cells (A431, HEB, U87MG) (human, UniProt P00533 25-1210)
T2 construct: whole, on cells; One molecule for all three cell lines; the cell line is named under assay; also called wild-type EGFR
Experiment: FACS on A431 cells
Procedure: as §1, with “The” for “The cells are washed twice with the HBSS buffer and are counted, and then the cells are diluted with the HBSS buffer to 2×10⁶ cells/ml, added with 1% goat serum blocking solution, with the percentage being the mass percentage, and incubated on ice for 30 minutes, and then centrifugally washed twice with the HBSS buffer. The”

binding result	Binder
no binding	B4
no binding	B5
no binding	B6
no binding	B7
no binding	B8
no binding	B9
no binding	B10

Molecular target: T3, human EGFRvIII-hFc protein (human, UniProt P00533 25-645)
T3 construct: extracellular domain; also called immunogen A; hFc-tagged EGFRvIII protein; not shown: human IgG Fc fragment (hFc) of the pCpC vector
Experiment: ELISA, EGFRvIII-hFc coated
Procedure: The purified immunogen A (EGFRvIII-hFc) obtained in example 1 (for the preparation method, see step (I) in example 1) is diluted with PBS to a final concentration of 1.0 μg/mL, and then added to a 96-well ELISA plate at 100 μl/well. The plate is sealed with a plastic film and incubated at 4° C. overnight. The next day, the plate is washed twice with a plate washing solution [PBS+0.01% (v/v) Tween20], and added with a blocking solution [PBS+0.01% (v/v) Tween20+1% (w/w) BSA] for blocking 2 hours at room temperature. […] The plate is incubated for 2 hours at 37° C., and then washed 3 times with the plate washing solution [PBS+0.01% (v/v) Tween20]. The plate is added with an HRP (horseradish peroxidase) labeled secondary antibody (purchased from Sigma), incubated at 37° C. for 2 hours, and then washed 3 times with the plate washing solution [PBS+0.01% (v/v) Tween20]. The plate is added with 100 μl of TMB substrate/well, incubated for 30 minutes at room temperature, and then added with 100 μl of stopping solution (1.0N HCl)/well. A450 nm value is read using an ELISA plate reader (SpectraMax 384plus, purchased from Molecular Device), and the results are shown in FIG. 11 and table 19.

EC50	Maximum OD450 value	Binder
0.02 nM	3.44 OD450	B1
0.03 nM	3.23 OD450	B2
0.54 nM	1.86 OD450	B3

Molecular target: T4, human EGFRvIII protein on the surface of U87MG-hEGFRvIII cells (human, UniProt P00533 25-1210)
T4 construct: whole, on cells; Stably transfected U87MG cells; also called mutant EGFRvIII protein; U87MG-EGFRvIII
Experiment: FACS on U87MG-hEGFRvIII cells
Procedure: as §1

EC50	Binder
7.9 nM	B4
26.2 nM	B5
6.8 nM	B6
25.3 nM	B7
13.3 nM	B8
12.3 nM	B9
40.9 nM	B10

Molecular target: T5, human EGFRvIII protein on the cell surface (human, UniProt P00533 25-1210)
T5 construct: whole, on cells; the cell line is named under assay; also called hEGFRvIII; U87MG-hEGFRvIII
Experiment: FACS on CHOk1-EGFRvIII cells
Procedure: The desired cells are subjected to an expanded culture to 90% confluence in a T-75 cell culture flask; the medium is sucked out, and the cells are washed twice with a HBSS buffer (Hanks Balanced Salt Solution) (purchased from Invitrogen), and then treated with an enzyme-free cell dissociation solution (Versene solution: purchased from Life Technology) and collected. The cells are washed twice with the HBSS buffer and are counted, and then the cells are diluted with the HBSS buffer to 2×10⁶ cells/ml, added with 1% goat serum blocking solution, with the percentage being the mass percentage, and incubated on ice for 30 minutes, and then centrifugally washed twice with the HBSS buffer. The collected cells are suspended to 2×10⁶ cells/mL with an FACS buffer (HBSS+1% BSA, with the percentage being the mass percentage), added to a 96-well FACS reaction plate at 100 μL/well, then added with 100 μL/well of the purified EGFRvIII antibody (samples to be tested) obtained in example 2, and incubated on ice for 2 hours. The plate is centrifugally washed twice with the FACS buffer, added with 100 μL/well of a fluorescence (Alexa 488) labeled secondary antibody (purchased from Invitrogen), and then incubated on ice for 1 hour. The plate is centrifugally washed 3 times with the FACS buffer, added with 100 μL/well of a fixing solution [4% (v/v) paraformaldehyde] for suspending the cells, and centrifugally washed twice with the FACS buffer after 10 minutes. The cells are suspended in 100 μL of the FACS buffer, and the results are detected and analyzed by FACS (FACS Calibur, purchased from BD). Data analysis is performed by using the software (CellQuest) to obtain the mean fluorescence intensity (MFI) of the cells. Data is further analyzed by using the software (GraphPad Prism5) to perform data fitting and calculate EC50. […] A431 cells (human epidermal cell cancer cell lines) have a large amount of wild-type EGFR protein expressed on the surface thereof.

EC50	Maximum mean fluorescence intensity	Binder
7.45 nM	110000 MFI	B1
11.6 nM	111000 MFI	B2
24.8 nM	94100 MFI	B3
